In a protein production outcome set (Wang et al. 2014):

Test: label from the status in PepcDB records

Sequence | protein production
NSSKSLEAELVRDRQELIDARKKELKAYMMMGVTAIKPLYDSDVNGSNKQAAKEILKAMRFESDGYFFAYDSQGINTLHAIKPSLEGKNLYDLKDENGVAVIAGLIDASQKGDGFLYFSWHKPTINAQAPKLGYAEYLQKWDWVLGTGIYIDDIDQQVAMQRELRTQELNQHT | not failed
MSLKKVVIIGGGAAGMSAASRVKRLKPEWDVKVFEATEWVSHAPCGIPYVVEGLSTPDKLMYYPPEVFIKKRGIDLHLNAEVIEVDTGYVRVRENGGEKSYEWDYLVFANGASPQVPAIEGVNLKGVFTADLPPDALAIREYMEKYKVENVVIIGGGYIGIEMAEAFAAQGKNVTMIVRGERVLRRSFDKEVTDILEEKLKKHVNLRLQEITMKIEGEERVEKVVTDAGEYKAELVILATGIKPNIELAKQLGVRIGETGAIWTNEKMQTSVENVYAAGDVAETRHVITGRRVWVPLAPAGNKMGYVAGSNIAGKELHFPGVLGTAVTKFMDVEIGKTGLTEMEALKEGYDVRTAFIKASTRPHYYPGGREIWLKGVVDNETNRLLGVQVVGSDILPRIDTAAAMLMAGFTTKDAFFTDLAYAPPFAPVWDPLIVLARVLKEGHHHHHH | not failed
MDDGTGAKRTKATVLQRVSSVLNADAHDATALDGGEVGSVYRVSFHDRPDVAVKVDDSPLGIEAAMLQSLDRDTPLPVPEVLHVEPELLVLSFIRGDGRFDERAERDLARHVAALHDTSADVFGFPFDTLSGPFSQSNPWTDSWIDFFRAQRLLPFATAARNEGALPAGEFDRVQRLAETLDARLVEPATPSLLHGDIHPGNAVVADGTVRAVLDPAIYFGHAEVDLAYVDRLDSIGAAFYDEYRQHRDISAGYFEERRDVYVAFHALENVRFFGEDELPRLERALDRLGM | failed
MLSHHPSLHFLSKLSTLSLQRNQEKQALVEELEERIELLNRLETTLSKTLNCFPEELVTFLKNNDSVTSLAEFAAECNVDPLRDTQTELLIAASQKLERWWQVEKLVEEEKKRNYEAEKLLKDFEAFKKDLETVITGFKAEQSSATQASVDQEKKALEKLKKAFESYEANSSCQPVDVTHEEVVELGKKVTLLEAQVIEEQLQLDTYQMLPQDPVLARIVLDEAKEKLKEFSAERDSILRNMKFV | failed
QALPEKALDSFIVTGLSKRGWTTWLTAIVDSRVVAIAPFVIDLLDTRAALEHMYQSYGGNWPIAFTPYYLDEVDKKLDTASFAKLMQIIDPLQYMGTEYQSRLSIPKYIINASGDDFYVPDNTDFYYDKLPGEKALRVAPNASHSGIKAFSEQSLISFVNR | failed
ADGILGVDKLGHFIFANESATKITGYSEEQILSSDLISLFAGDNKENLTFEDTEVYKAIQSKEVIRISNEYVLMSGARELPLEYSISPVEDDE | failed
VPKLVDHDERRRSITAAAWRLIAARGIEAANMRDIATEAGYTNGALSHYFAGKDEILRTSYEHISEATDRRIAEALGDATGLDALRILCREVMPINEEQLLEARIAASLWPRAMYDEQMAATNRRTMDNWREQMAIFLEQAREEGSVGDIDVTIVVEQLLNMMMGMQILGVLTPGETSSERQLEMLEQFVAAL | not failed
MNHPYRWVIVAAGGVLGCVAAGAMFSLPVLIRPMSQDTGWSVTGISTAMTIGFLAMAAASMVWGNLSDRFGPRPVVLTGSVVLAASLALGSRATSLIEFQLLFGALVGAATAAVFAPMMACVTGWFDTGRGLAVSLVSAGMGMAPLTMAPLAAWLVTIHDWRGAMLIISAITAALMIPAALLVRRPPALEPGGAEGAWADAQDDMTLRQAVRSPQFVTLLLANFFCCATHSGPIFHTVSYAVTCGIPMIAATSIYSVEGLSGMFGRLGFGLAGDRFGAQRVLVIGLLAQAFGVLAYAFVGGLGGFYAVAVAVGFIYAGTMPLYAVIIRENFPLRMMGTIVGGTAMAGSLGMSTGPVLGGLIYDAYDSYAPMYVASCGMGLAAMLILATFRPFPQRRGELAVA | failed
MNILKRKTPQNIRFGEQKPKYYFHIRAFAVLLGVFFLLGVYFNWQSILEKMDDKPISAFALVGQNTFTTADDIKESLLKMGELKGFWGQDVAPIQEQIEALPWVKGAIVRKMWPNRLSIWVSEYQPVAFWNQNQFVTLDGIVFQLPSVRLTAKNLPYLGGPDYQSLKVIETWNQIYINLKSNNIMAKGINIDDRGAWQVQLDNDIVLKLGRGDWKSKLERFVTIYPQIDVPENKKIDYIDLRYTAGAAVGMVDR | failed
MIYRILIVISIFMISFSGFGQTDYFKLGKEYYNNGEYEKAAATYSEVIKKEENLPKVYETYLSTLYKLKNYTEAEKIIKKMVKVGSPENYTYRIDYALFYKQQNLTDKAEKEFSAFVSDIQKNSTAVDISGAYLQKLGEYTWAKQLYLQARKNFDRYAYCFELSSIYNRLGQTENMFDELLNYLSVNPASLEEVQNTFQNELDTDEKFALFETKVYDRINKDPNDIVYNQLLLWLNLQRKNFTKAFIQAKAIDKRNRQTGTTVLEVGNIALENKDYDAAGACFQYVSDNFKESFNYSIARRLLIQTREEQIKNTFPVDKQKIVGLISDYNQLLKENGRTAYTLESLRNMALLNAFYLDKRDTAVVILKSLIENPYTDNRLRGKAKIDLGDIYLLTGEPWESTLLYSQVEKDFKEDQLGHEAKLRNAELYYYKGEFVLAQEQLDVLKLATTREISNDAIQLSVFITENSGLDSTTDALKDYSAIQLLLFQRKYDEALQAANALLKQYPHHELTDDVYWLQATILRQTGKPTEALEMLKKISTGYADDLLGDDALFTSAQIFDYDLKNTEKAMQLYQDFLIQYTNSVYVTEARKRFRILRGDKI | failed
MAYTDPAQRNQVTVLQVGYSRQEEGDESAMRANCTCTLVRCRDGTNIIVDTLTAWDGDHLRSLLGQQGLGVDDIHVVVCSHGHSDHIGCNYLFQKARMHLVGACASHHDLYMDHLGSGNPDEQLALDSNAEVVVRRSPGHTLSCVSVLVENSQLGGRVGITGDLFERREDIDDENIWMDAGSENEKVQREERSKMAQLCEFIIPGHGPMFSVTQSMRCKLKEDATSNT | failed
MTAFILVSGMFTGTHIWQDTAARLTARGAEVHTVALTGLDAPRAAAAPGVDLETHIADVLAVIDSVGAAGDRRIVLVGHDYGIHPAVGAADRRAERVDRIVHLDSGLPRDGVPALAAVPDQSLRERLAGAAGADGVLPPPAHEEWPRWGSTAGVPDAALDRLTALAAPQPLGTLLQPLRLTGAVDPVPTTGVLCTGNGTSIELVQMLVRLGDPALRPLTDPRVSFFELPTGHWPMLSLPAELTDVLLRAAAG | failed
MNNIIVGMGEALWDVLPEGKKIGGAPANFAYHVSQFGFDSRVVSAVGNDELGDEIMEVFKEKQLKNQIERVDYPTGTVQVTLDDEGVPCYEIKEGVAWDNIPFTDELKRLALNTRAVCFGSLAQRNEVSRATINRFLDTMPDIDGQLKIFDINLRQDFYTKEVLRESFKRCNILKINDEELVTISRMFGYPGIDLQDKCWILLAKYNLKMLILTCGINGSYVFTPGVVSFQETPKVPVADTVGAGDSFTAAFCASILNGKSVPEAHKLAVEVSAYVCTQSGAMPELPVILKDRLL | not failed
MYDMVREKTYYFMIVERITIMTEKMTRMTQFVKEEIANAITHGIGAILSIPALIILIIHASKHGTASAVVAFTVYGVSMFLLYLFSTLLHSIHHPKVEKLFTILDHSAIYLLIAGTYTPFLLITLRGPLGWTLLAIIWTLAIGGIIFKIFFVRRFIKASTLCYIIMGWLIIVAIKPLYENLTGHGFSLLLAGGILYSVGAIFFLWEKLPFNHAIWHLFVLGGSAMMFFCVLFYVLPTAS | failed
MTTHQVKKSEAKRQHILDSGFHLVLRKGFVGVGLQEILKTSGVPKGSFYHYFESKEAFGCELLKHYISDYQIRLNQLWTTETSARDKLMNYLQCWVKDPATEQSWAESCLIVKMAAEVADLSEDMRLIMNDGVKRLIARMADLIRIGQQEGSIQTSVVPDVLAQVIYQMYLGAALLSKLYKHKAPLFQALESTKMMLDGCNHVQQDKNQ | not failed
MIYLQNFITTTIQLNIYLILVIGLLYVIIHYYRNKGVNAFLDIYLNYIPVLTHEFGHVLFNKLAGGKAKDLVIVTSPRERKVTSQQGYAITQSKGYLGQFITTIGGYLMPPLMFLTGLVSIHYQYPSIFITIYLFIFIYYLFITSRKLSPLIVIILISSLLYLVFKQDHQWFIYDIVTLSYHFILGVLLGEILQSSWTIFRLTFQRPKPSWDGSALTKVTRVPTFIFSLVWILFNLYTVYLLIKYTIL | failed
MKLAMIGFGQAGGKIVDKFLEYDKETGSGIVRSAVAVNTAKADLLGLEHIPEENRVLIGQARVKGHGVGADNELGAEIAEEDIDEVQGAIDNIPVHEVDAFLIVAGLGGGTGSGGSPVVAKHLKRIYTEPVYGLGVLPGSDEGGIYTLNAARSFQTFVREVDNLMVFDNDAWRQTGESVEGGYDHINEEIVRRFGVLFGAGEIEAGDNVAESVVDSSEIINTLDGGGVSTVGYASEDVEVSSGGGGLLSRFKGDDSSDDSMDTANTTNRITSLVRKAALGRLTLPCEIEGAERALLVMAGPPEHLNRKGIERGRKWLEEQTGSMEVRGGDYPTNAPKVAASILLAGVHNVPRIKELQQVAIEAQDNIDDIRNQSEDNLEDLVEDDEDELDPLF | failed
AKSEMAFAGKGEISPRAITMWDFSWLERRWPGAGYEDWDQVLDELSERGYNAIRIDAYPHLIAENPMKKWLLKEVWNQQDWGSPDMNEVQVQPNLNLFLSKCKERDIKVGLSSWYRLDVDEVCLKLDTPEKLADCWLTILRSIEEDGLLDTILYVDLCNEWPGDSWAPFFAKTYPNVGWGNWYKEESLRWMKTSLEKMRQVYPDMPFLYSFDHGDVKKYEEVDCSFLDLYEHHIWMAQQNGGEFYKLVGYGYNRFLPDDYKNVVKNAERVYRERPGYWQKLLTDKIELMASVARKNRRPLVTTECWGLVDYKDWPLLKWDWVKDLCELGTITAARTGMWVGVATSNFCGPQFAGMWRDVEWHKRLTSIIRSSPLDESLTKNNEVAAKLLKRL | not failed
MFPSRRKAAQLPWEDGRSGLLSGGLPRKCSVFHLFVACLSLGFFSLLWLQLSCSGDVARAVRGQGQETSGPPRACPPEPPPEHWEEDASWGPHRLAVLVPFRERFEELLVFVPHMRRFLSRKKIRHHIYVLNQVDHFRFNRAALINVGFLESSNSTDYIAMHDVDLLPLNEELDYGFPEAGPFHVASPELHPLYHYKTYVGGILLLSKQHYRLCNGMSNRFWGWGREDDEFYRRIKGAGLQLFRPSGITTGYKTFRHLHDPAWRKRDQKRIAAQKQEQFKVDREGGLNTVKYHVASRTALSVGGAPCTVLNIMLDCDKTATPWCTFS | failed
MWSILALGAVERCIHHIIDLDAITRIQTNQLQGKLLRVVTDSPQLSVDVFFDENRVRLEPTVTGQSQTPSIFEQRPFDPQYKMTDATATLHVKNIVELVKLLFNDPDQIGNIPVEGDYHLLQDIQKIMQQSEPDLAAHLSPWIGPALAHELGKIRLAPQQLKRSMQSHLFFVEDALKEDSGLFAPRWQMDDLQHATRQLNQELDRVEARLQQLNLQLQSDN | failed
MSIEATLLARCESKCELCSSESPLTAYAVPPHGNVTVDTAIMVCDKCHSEIEEPKDINHWRCLNESMWSQVPAVQVTAWRQLTRLNSESWAQDALDMMYMEEEQKNWAMTGMSADDKTVDCNGTELKKGDDVTVIKDLPVKGTNQVIKQGTVIRGISLGDDPKLISGKANGGQSMYVIAEYCRKKLEHHHHHH | failed
MNNLFVLLIIIALSVGSNNGSKLWPKNQLHFRNSFSRNYDVLTVHCKSKDDDLGIHTVARSYEYNFKFEDSVFGRTEFFCTLMHGVGSKYSVTFTAYKAKPAFVASTGVIKIWDALDDGIYLTDEDHDFVKIYGW | failed
